Test results published in the supplement of paper PMC10567573.

B1: ZNF263 (parent)
chain: VPGTQVGQGGKLWDPSVQSCKEGL

Variants of: B1
Experiment: protein stability index of a GFP-peptide fusion (GPS, HEK-293T) (PSI 1-6); higher = more stable
Conditions: c terminus: a fixed tail appended
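Further: lentivirally expressed fusions sorted by FACS into six bins by GFP to DsRed ratio, PSI derived from sequencing read proportions per bin multiplied by bin number.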

In order of rising protein stability index:
1. YPGTQVGQGGKLWDPSVQSCKEGL  1.85
2. VPGTQVGQGWKLWDPSVQSCKEGL  2.45
3. VYGTQVGQGGKLWDPSVQSCKEGL  2.83
4. VPGTQVGQGFKLWDPSVQSCKEGL  2.93
5. VPFTQVGQGGKLWDPSVQSCKEGL  3.01
6. VPGTQVGCGGKLWDPSVQSCKEGL  3.07
7. VWGTQVGQGGKLWDPSVQSCKEGL  3.12
8. VIGTQVGQGGKLWDPSVQSCKEGL  3.19
9. VPGTQVGYGGKLWDPSVQSCKEGL  3.21
10. VPGTQVGQGCKLWDPSVQSCKEGL  3.24
11. VPGTYVGQGGKLWDPSVQSCKEGL  3.25
12. VPGTQVGQPGKLWDPSVQSCKEGL  3.25
13. VPGTFVGQGGKLWDPSVQSCKEGL  3.3
14. VPGTQVTQGGKLWDPSVQSCKEGL  3.33
15. VPGTQVGQWGKLWDPSVQSCKEGL  3.33
16. VPRTQVGQGGKLWDPSVQSCKEGL  3.35
17. VPGTQVFQGGKLWDPSVQSCKEGL  3.36
18. VPGTQWGQGGKLWDPSVQSCKEGL  3.36
19. VPGEQVGQGGKLWDPSVQSCKEGL  3.4
20. VPGIQVGQGGKLWDPSVQSCKEGL  3.42
21. VPGTQVGQMGKLWDPSVQSCKEGL  3.42
22. VPGTQVGQNGKLWDPSVQSCKEGL  3.47
23. VPGTQVGEGGKLWDPSVQSCKEGL  3.48
24. VPSTQVGQGGKLWDPSVQSCKEGL  3.48
25. VPGTQCGQGGKLWDPSVQSCKEGL  3.49
26. VPGTQHGQGGKLWDPSVQSCKEGL  3.51
27. VPGTQVGQGIKLWDPSVQSCKEGL  3.53
28. VPGTQVGQGYKLWDPSVQSCKEGL  3.55
29. VPGWQVGQGGKLWDPSVQSCKEGL  3.55
30. VSGTQVGQGGKLWDPSVQSCKEGL  3.55
31. VPGTQVGTGGKLWDPSVQSCKEGL  3.56
32. VPGTQVGQYGKLWDPSVQSCKEGL  3.59
33. VCGTQVGQGGKLWDPSVQSCKEGL  3.61
34. VPGTQVGQGLKLWDPSVQSCKEGL  3.62
35. VPGTQVGQGGPLWDPSVQSCKEGL  3.65
36. VPGTQVGWGGKLWDPSVQSCKEGL  3.67
37. VPGTQVIQGGKLWDPSVQSCKEGL  3.67
38. VPGTQVGQRGKLWDPSVQSCKEGL  3.67
39. VPGTQVGQVGKLWDPSVQSCKEGL  3.67
40. VPGTQVRQGGKLWDPSVQSCKEGL  3.68
41. VPGTQVQQGGKLWDPSVQSCKEGL  3.69
42. VPGTQVGSGGKLWDPSVQSCKEGL  3.71
43. VPGTQVGQGVKLWDPSVQSCKEGL  3.71
44. VPGTQVGQCGKLWDPSVQSCKEGL  3.73
45. VHGTQVGQGGKLWDPSVQSCKEGL  3.75
46. VPGTQVLQGGKLWDPSVQSCKEGL  3.77
47. VPKTQVGQGGKLWDPSVQSCKEGL  3.77
48. VPWTQVGQGGKLWDPSVQSCKEGL  3.77
49. VPGTQVHQGGKLWDPSVQSCKEGL  3.78
50. VPGTQVPQGGKLWDPSVQSCKEGL  3.78
51. VPGTQVGLGGKLWDPSVQSCKEGL  3.79
52. VPGTMVGQGGKLWDPSVQSCKEGL  3.79
53. VPMTQVGQGGKLWDPSVQSCKEGL  3.8
54. VPGTQVGQIGKLWDPSVQSCKEGL  3.8
55. VPGTQVKQGGKLWDPSVQSCKEGL  3.81
56. VPGTQYGQGGKLWDPSVQSCKEGL  3.82
57. VPGTQVYQGGKLWDPSVQSCKEGL  3.86
58. VTGTQVGQGGKLWDPSVQSCKEGL  3.86
59. VPGTQVVQGGKLWDPSVQSCKEGL  3.87
60. VQGTQVGQGGKLWDPSVQSCKEGL  3.87
61. VPGTQVGQFGKLWDPSVQSCKEGL  3.87
62. VKGTQVGQGGKLWDPSVQSCKEGL  3.89
63. VLGTQVGQGGKLWDPSVQSCKEGL  3.89
64. VPGTQVGQGGFLWDPSVQSCKEGL  3.9
65. VPGTQVMQGGKLWDPSVQSCKEGL  3.91
66. VPGRQVGQGGKLWDPSVQSCKEGL  3.92
67. VPGMQVGQGGKLWDPSVQSCKEGL  3.92
68. VPGTEVGQGGKLWDPSVQSCKEGL  3.94
69. VPGKQVGQGGKLWDPSVQSCKEGL  3.96
70. VPGTQVGMGGKLWDPSVQSCKEGL  3.97
71. VPGTQAGQGGKLWDPSVQSCKEGL  3.97
72. VPVTQVGQGGKLWDPSVQSCKEGL  3.99
73. VFGTQVGQGGKLWDPSVQSCKEGL  3.99
74. VPGTQVGQGGALWDPSVQSCKEGL  4
75. VPGCQVGQGGKLWDPSVQSCKEGL  4
76. VPQTQVGQGGKLWDPSVQSCKEGL  4
77. VPGTAVGQGGKLWDPSVQSCKEGL  4
78. VPGTQVGQGEKLWDPSVQSCKEGL  4.01
79. VVGTQVGQGGKLWDPSVQSCKEGL  4.01
80. VPGTQVGQGHKLWDPSVQSCKEGL  4.02
81. VPGTQVAQGGKLWDPSVQSCKEGL  4.02
82. VPGTQVGQGGHLWDPSVQSCKEGL  4.03
83. VPGTQLGQGGKLWDPSVQSCKEGL  4.03
84. VPGTQVGQAGKLWDPSVQSCKEGL  4.03
85. VPGTQVGVGGKLWDPSVQSCKEGL  4.04
86. VPGTCVGQGGKLWDPSVQSCKEGL  4.04
87. VPGTQVWQGGKLWDPSVQSCKEGL  4.06
88. VPYTQVGQGGKLWDPSVQSCKEGL  4.06
89. VPGTQVGPGGKLWDPSVQSCKEGL  4.07
90. VPGYQVGQGGKLWDPSVQSCKEGL  4.08
91. VPGSQVGQGGKLWDPSVQSCKEGL  4.08
92. VPGHQVGQGGKLWDPSVQSCKEGL  4.1
93. VPLTQVGQGGKLWDPSVQSCKEGL  4.1
94. VPGTQVGKGGKLWDPSVQSCKEGL  4.11
95. VPGTQVGHGGKLWDPSVQSCKEGL  4.12
96. VPCTQVGQGGKLWDPSVQSCKEGL  4.12
97. VDGTQVGQGGKLWDPSVQSCKEGL  4.12
98. VPGTQVGQGGLLWDPSVQSCKEGL  4.13
99. VPGTSVGQGGKLWDPSVQSCKEGL  4.13
100. VPGTQVGIGGKLWDPSVQSCKEGL  4.15
101. VPGFQVGQGGKLWDPSVQSCKEGL  4.15
102. VPGTWVGQGGKLWDPSVQSCKEGL  4.15
103. VPGTDVGQGGKLWDPSVQSCKEGL  4.16
104. VPGTIVGQGGKLWDPSVQSCKEGL  4.16
105. VPGTQVGFGGKLWDPSVQSCKEGL  4.17
106. VPGTLVGQGGKLWDPSVQSCKEGL  4.17
107. VAGTQVGQGGKLWDPSVQSCKEGL  4.17
108. VNGTQVGQGGKLWDPSVQSCKEGL  4.18
109. VPGTQVGQGNKLWDPSVQSCKEGL  4.19
110. VPGTQVGQLGKLWDPSVQSCKEGL  4.19
111. VPGTRVGQGGKLWDPSVQSCKEGL  4.2
112. VPGTTVGQGGKLWDPSVQSCKEGL  4.2
113. VPATQVGQGGKLWDPSVQSCKEGL  4.21
114. VPGTKVGQGGKLWDPSVQSCKEGL  4.21
115. VPGTQVGQGGELWDPSVQSCKEGL  4.22
116. VPGTQVGQQGKLWDPSVQSCKEGL  4.22
117. VPGQQVGQGGKLWDPSVQSCKEGL  4.23
118. VPGTNVGQGGKLWDPSVQSCKEGL  4.23
119. WPGTQVGQGGKLWDPSVQSCKEGL  4.23
120. VPGTQVGQSGKLWDPSVQSCKEGL  4.23
121. VPGTQVGNGGKLWDPSVQSCKEGL  4.24
122. VPGTQVDQGGKLWDPSVQSCKEGL  4.24
123. VPGTVVGQGGKLWDPSVQSCKEGL  4.24
124. VRGTQVGQGGKLWDPSVQSCKEGL  4.24
125. VEGTQVGQGGKLWDPSVQSCKEGL  4.25
126. VPGTQVGQKGKLWDPSVQSCKEGL  4.25
127. VPGTQVGQTGKLWDPSVQSCKEGL  4.25
128. VPGTQVGQGGILWDPSVQSCKEGL  4.26
129. VPGGQVGQGGKLWDPSVQSCKEGL  4.26
130. VPGTQPGQGGKLWDPSVQSCKEGL  4.26
131. VMGTQVGQGGKLWDPSVQSCKEGL  4.26
132. VPGTGVGQGGKLWDPSVQSCKEGL  4.27
133. VPGTQVGGGGKLWDPSVQSCKEGL  4.28
134. VPGTQVGQGMKLWDPSVQSCKEGL  4.28
135. VPGTQIGQGGKLWDPSVQSCKEGL  4.28
136. VPHTQVGQGGKLWDPSVQSCKEGL  4.28
137. VGGTQVGQGGKLWDPSVQSCKEGL  4.28
138. VPGPQVGQGGKLWDPSVQSCKEGL  4.29
139. VPGTQVCQGGKLWDPSVQSCKEGL  4.29
140. VPGTQEGQGGKLWDPSVQSCKEGL  4.29
141. VPGTQMGQGGKLWDPSVQSCKEGL  4.29
142. VPGTQDGQGGKLWDPSVQSCKEGL  4.3
143. VPNTQVGQGGKLWDPSVQSCKEGL  4.3
144. VPITQVGQGGKLWDPSVQSCKEGL  4.3
145. VPGTQVGQGTKLWDPSVQSCKEGL  4.31
146. VPTTQVGQGGKLWDPSVQSCKEGL  4.32
147. VPGTQVGQGAKLWDPSVQSCKEGL  4.33
148. VPGTPVGQGGKLWDPSVQSCKEGL  4.33
149. VPGTQVGRGGKLWDPSVQSCKEGL  4.34
150. VPGTQVGQHGKLWDPSVQSCKEGL  4.34
151. VPGTQVGQGQKLWDPSVQSCKEGL  4.38
152. VPGLQVGQGGKLWDPSVQSCKEGL  4.38
153. VPGTQVGAGGKLWDPSVQSCKEGL  4.41
154. VPGTQVSQGGKLWDPSVQSCKEGL  4.41
155. VPGTQVEQGGKLWDPSVQSCKEGL  4.41
156. VPGTQVGQGGGLWDPSVQSCKEGL  4.44
157. VPGNQVGQGGKLWDPSVQSCKEGL  4.44
158. VPGTQVGQGGRLWDPSVQSCKEGL  4.46
159. VPGTQVGQGPKLWDPSVQSCKEGL  4.47
160. VPGTQNGQGGKLWDPSVQSCKEGL  4.47
161. VPGTQVGQGSKLWDPSVQSCKEGL  4.48
162. VPGTQVGQGKKLWDPSVQSCKEGL  4.5
163. VPPTQVGQGGKLWDPSVQSCKEGL  4.5
164. VPGTQVGQGDKLWDPSVQSCKEGL  4.54
165. VPGTQVGQGGQLWDPSVQSCKEGL  4.54
166. VPGTQVGQGGNLWDPSVQSCKEGL  4.54
167. VPGAQVGQGGKLWDPSVQSCKEGL  4.55
168. VPGTQRGQGGKLWDPSVQSCKEGL  4.55
169. VPGTQVGQDGKLWDPSVQSCKEGL  4.55
170. VPGTQVGQGGMLWDPSVQSCKEGL  4.56
171. VPGTQVGQGGCLWDPSVQSCKEGL  4.57
172. VPGVQVGQGGKLWDPSVQSCKEGL  4.57
173. VPGTQVGQEGKLWDPSVQSCKEGL  4.61
174. VPGTQVGQGGDLWDPSVQSCKEGL  4.63
175. VPGTHVGQGGKLWDPSVQSCKEGL  4.63
176. TPGTQVGQGGKLWDPSVQSCKEGL  4.63
177. VPGTQFGQGGKLWDPSVQSCKEGL  4.65
178. VPGTQSGQGGKLWDPSVQSCKEGL  4.67
179. VPGTQKGQGGKLWDPSVQSCKEGL  4.69
180. VPGTQTGQGGKLWDPSVQSCKEGL  4.7
181. VPGTQVGDGGKLWDPSVQSCKEGL  4.71
182. VPGTQQGQGGKLWDPSVQSCKEGL  4.73
183. VPGTQVNQGGKLWDPSVQSCKEGL  4.76
184. VPGTQGGQGGKLWDPSVQSCKEGL  4.83
185. VPGDQVGQGGKLWDPSVQSCKEGL  4.85
186. VPETQVGQGGKLWDPSVQSCKEGL  4.88
187. VPGTQVGQGRKLWDPSVQSCKEGL  4.96
188. VPDTQVGQGGKLWDPSVQSCKEGL  4.96
